Data from publication PMC8303780, “Mutational Analysis of Redβ Single Strand Annealing Protein: Roles of the 14 Lysine Residues in DNA Binding and Recombination In Vivo”.
Changes are numbered by the printed parent chain.

What was measured:
Assay in all cases: fluorescence anisotropy
Conditions in all cases: Anisotropy: 50 mM Tris-HCl pH 7.5, 1 mM DTT, 0.1 mg/mL BSA, 10 nM FAM48, 23 °C (Kd per monomer), gel assay: 10 µM Redβ, 50 µM nt of each oligo, PBS, 37 °C
[1] = target: T1, Redβ K214A K214A (bacteriophage λ) (UniProt P03698)
T1 sequence: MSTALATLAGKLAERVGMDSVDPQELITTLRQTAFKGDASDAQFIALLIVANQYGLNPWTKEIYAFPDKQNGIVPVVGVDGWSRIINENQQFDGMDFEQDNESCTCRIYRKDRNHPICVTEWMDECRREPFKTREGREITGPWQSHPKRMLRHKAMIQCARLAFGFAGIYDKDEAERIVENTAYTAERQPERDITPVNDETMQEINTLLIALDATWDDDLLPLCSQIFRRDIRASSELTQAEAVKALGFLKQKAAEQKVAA

[2] = target: T2, Redβ K132A K132A (bacteriophage λ) (UniProt P03698)
T2 sequence: T1 sequence with K132A, A214K

[3] = target: T3, Redβ K154A K154A (bacteriophage λ) (UniProt P03698)
T3 sequence: T1 sequence with K154A, A214K

[4] = target: T4, Redβ K251A K251A (bacteriophage λ) (UniProt P03698)
T4 sequence: T1 sequence with A214K, K251A

[5] = target: T5, Redβ K69A K69A (bacteriophage λ) (UniProt P03698)
T5 sequence: T1 sequence with K69A, A214K

[6] = target: T6, Redβ K172A K172A (bacteriophage λ) (UniProt P03698)
T6 sequence: T1 sequence with K172A, A214K

[7] = target: T7, Redβ K11A K11A (bacteriophage λ) (UniProt P03698)
T7 sequence: T1 sequence with K11A, A214K

[8] = target: T8, Redβ K148A K148A (bacteriophage λ) (UniProt P03698)
T8 sequence: T1 sequence with K148A, A214K

[9] = target: T9, Redβ K245A K245A (bacteriophage λ) (UniProt P03698)
T9 sequence: T1 sequence with A214K, K245A

Substance: FAM48 48-mer ssDNA
- Kd [1]: 310 nM
- Kd [2]: 1770 nM
- Kd [3]: 2100 nM
- Kd [4]: 190 nM
- Kd [5]: 410 nM
- Kd [6]: 2600 nM
- Kd [7]: 230 nM
- Kd [8]: 14100 nM
- Kd [9]: 160 nM
